Results reported in patent US20190248882A1 (ALLERGAN, published 2019).

Target: T1, human ANG-2 (R&D Systems) (human, UniProt O15123 68-496, limits assumed, biotinylated in the Tie-2 competition ELISA (site not stated))
T1 construct: Protein bought from R&D Systems; It was unlabelled in the Octet assay and biotinylated in the ELISA; also called angiopoietin-2; ANGPT2
T1 sequence: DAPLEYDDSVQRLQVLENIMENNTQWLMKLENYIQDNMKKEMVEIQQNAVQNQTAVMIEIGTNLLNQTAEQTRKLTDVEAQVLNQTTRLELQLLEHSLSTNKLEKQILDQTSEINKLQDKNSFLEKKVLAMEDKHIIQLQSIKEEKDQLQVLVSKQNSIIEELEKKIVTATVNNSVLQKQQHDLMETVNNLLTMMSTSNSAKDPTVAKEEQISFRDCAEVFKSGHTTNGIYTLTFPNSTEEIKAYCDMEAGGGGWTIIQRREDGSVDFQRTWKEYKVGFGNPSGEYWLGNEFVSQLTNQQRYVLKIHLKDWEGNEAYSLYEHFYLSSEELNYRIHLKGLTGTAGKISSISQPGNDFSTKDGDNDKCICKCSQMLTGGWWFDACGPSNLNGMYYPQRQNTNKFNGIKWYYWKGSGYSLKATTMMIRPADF
Experiment: BLI (Octet QKe); HCAb captured on anti-hIgG Fc tips, ANG-2 at 20 to 500 nM in solution
Description: Affinity measurements were performed using a fortéBIO OCTET® QK^e system equipped with anti-hlgG Fc capture (AHC) biosensor tips and strepavidin-coated biosensors (fortéBIO, Menlo Park, Calif.). For AHC affinity measurement, purified anti-ANG-2 HCAb A33A8 was tested for its binding capacity with AHC sensor tips. Tips were loaded using 20 μg/ml anti-ANG-2 A33A8 HCAb. Loading proceeded for 300 sec resulting in capture levels of between 1.8 and 2 nm. ANG-2 (R & D systems) antigen was prepared for binding analysis by dilution to concentrations of 20 to 500 nM in 1×PBS. Association was initiated and monitored for 200 sec, after which tips were transferred to 1×PBS buffer without Factor protein (Gibco, PBS pH 7.2), in order to monitor dissociation. Anti-ANG-2 A33A8 HCAb binding activity was then monitored in real time using bio-layer interferometry analysis. Antigen binding affinities were calculated for the tested ANG-2 based on the measured association (“Kassoc”) and dissociation (“Kdissoc”) constants. Data were processed and analyzed using the OCTET® data analysis software 6.4 (fortéBIO) (FIG. 4).

B1: A33A8 human anti-ANG-2 HCAb (antibody, human IgG1, V domains shown)
VH: QVQLVESGGGLVQPGGSLRLSCAASGFTFSSYWMHWVRQAPGKGLVWVSRINSDGSSTSYADSVKGRFTISRDNAKNTLYLQMNSLRAEDTAVYYCAREGYSSGGQFDYWGQGTLVTVSS
notes: also called anti-ANG-2 HCAb A33A8; anti-ANG-2 A33A8 HCAb
Kd: < 1 pM
